The test addresses human CD40 on cells (HEK293 transfected with human CD40; Ramos-Blue B-lymphocytes; human B cells; human monocyte-derived dendritic cells) (human) (UniProt P25942). Description: cell-based or functional assay.

Here are results for 1 substance from patent US20210260159A1.

UniProt P25942, sequence (P25942 21-277 limits assumed): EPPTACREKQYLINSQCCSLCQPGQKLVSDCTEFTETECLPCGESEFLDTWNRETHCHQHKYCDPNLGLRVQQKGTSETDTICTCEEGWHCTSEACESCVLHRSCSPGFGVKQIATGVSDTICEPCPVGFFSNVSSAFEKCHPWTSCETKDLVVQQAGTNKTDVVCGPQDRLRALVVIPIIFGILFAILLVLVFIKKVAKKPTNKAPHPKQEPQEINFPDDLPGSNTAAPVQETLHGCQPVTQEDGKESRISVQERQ

“human IgG4P isotype control NIP-228 (antibody)”: the EC50 (nM), NFkB-luciferase reporter, HuCD40 293 HEK NFkB c3 cells was determined as 2.27 nM and the EC50 (nM), NFkB/AP-1 reporter, Ramos-Blue B-cells turned out to be 208 nM.
